Test results from PMC3358930 (ACS synthetic biology, 2011).

T1: D. melanogaster Par-6 PDZ domain (residues 156-255) (D. melanogaster, UniProt O97111 156-255)
T1 sequence (looked up): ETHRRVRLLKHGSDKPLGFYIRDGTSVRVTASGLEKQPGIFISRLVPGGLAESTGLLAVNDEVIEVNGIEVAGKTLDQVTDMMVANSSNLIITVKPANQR

T2: TMR-CGYPKHREMAVDSP (Drosophila)
T2 peptide: Ac-C(TMR)GYPKHREMAVDSP-NH2

B1: PDZ-PxxP-COOH synthetic regulatory system without decoy ([Par-6 156-255]-PPPALPPKHREMAAD) (other, D. melanogaster)
chain: ETHRRVRLLKHGSDKPLGFYIRDGTSVRVTASGLEKQPGIFISRLVPGGLAESTGLLAVNDEVIEVNGIEVAGKTLDQVTDMMVANSSNLIITVKPANQRLPPPALPPKHREMAAD

Tests used:
[1] = biological target: T1, D. melanogaster Par-6 PDZ domain …; assay: fluorescence polarisation
TMR-CGYPKHREMAVDSP = biological target: T2, TMR-CGYPKHREMAVDSP; assay: fluorescence polarisation

Binder | Kd [1] | Kd (TMR-CGYPKHREMAVDSP)
Ac-C(TMR)GYPKHREMAAD-NH2 [TMR-CGYPKHREMAAD] | 15 µM | –
B1 | – | 48 µM
